Experimental data as given in the supplement of paper PMC10724198.
± gives the standard deviation of the averaged measurements.

Assays:
[1] = test system: Saccharomyces cerevisiae; assay: protein stability index of tFT-peptide fusion (C-terminal peptide) (PSI (0-1 scale)); higher = more stable (slower turnover)
Method: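 MPS profiling in S. cerevisiae of the tFT-X12 degron library: putative degron peptides plus stable controls, 12 aa, fused to the C-terminus of a sfGFP-mCherry timer. Cells are FACS-sorted into 8 mCherry/sfGFP bins and deep-sequenced. PSI runs from 0 (unstable) to 1 (stable). Backgrounds are wild type, das1Δ and doa10Δ at 30 °C, and wild type, das1Δ, cdc34-1 and cdc53-1 at 37 °C; 2-3 technical replicates each.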

[2] = test system: Saccharomyces cerevisiae; assay: as above; details: genetic background: wild type; temperature: 30 C
[3] = genetic background: cdc34-1, temperature: 37 C
[4] = genetic background: cdc53-1, temperature: 37 C
[5] = genetic background: das1 deletion, temperature: 30 C
[6] = genetic background: das1 deletion, temperature: 37 C
[7] = genetic background: doa10 deletion, temperature: 30 C
[8] = genetic background: wild type, temperature: 30 C
[9] = genetic background: wild type, temperature: 37 C
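Note: PSI is a weighted mean of sequencing reads over stability bins, variants kept only with over 10 reads, mCherry proximal and sfGFP distal, peptide attached via GGGS linker.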

| Sequence | protein stability index [1, 3] | protein stability index [1, 4] | protein stability index [1, 5] | protein stability index [1, 6] | protein stability index [1, 7] | protein stability index [1, 8] | protein stability index [1, 9] | protein stability index [2] |
| --- | --- | --- | --- | --- | --- | --- | --- | --- |
| LLVFWRLWWSLS | 0.248 ± 0.035 | 0.334 ± 0.011 | 0.251 ± 0.034 | 0.429 ± 0.028 | 0.081 ± 0.026 | 0.0903 ± 0.018 | 0.128 ± 0.007 | 0.157 ± 0.0075 |
| VYVSRTRPFSLY | 0.682 ± 0.052 | 0.7141 ± 0.0054 | 0.63 ± 0.011 | 0.728 ± 0.022 | 0.33 ± 0.0094 | 0.3687 ± 0.0034 | 0.573 ± 0.007 | 0.428 ± 0.031 |
| VYLVLRCGSVLV | 0.565 ± 0.015 | 0.56 ± 0.032 | 0.406 ± 0.021 | 0.597 ± 0.011 | 0.379 ± 0.018 | 0.399 ± 0.016 | 0.586 ± 0.02 | 0.443 ± 0.054 |
| VVWLFGVSWCWL | 0.429 ± 0.018 | 0.5093 ± 0.0025 | 0.355 ± 0.022 | 0.525 ± 0.006 | 0.313 ± 0.011 | 0.34 ± 0.03 | 0.518 ± 0.015 | 0.419 ± 0.0056 |
| GLLFWSGVVSWV | 0.2627 ± 0.0023 | 0.388 ± 0.058 | 0.243 ± 0.038 | 0.507 ± 0.0027 | 0.225 ± 0.0065 | 0.263 ± 0.038 | 0.504 ± 0.014 | 0.4 ± 0.0088 |
| SGPNASRFYAPI | 0.672 ± 0.04 | 0.733 ± 0.0081 | 0.634 ± 0.013 | 0.72486 ± 8.5e-06 | 0.657 ± 0.034 | 0.656 ± 0.037 | 0.704 ± 0.011 | 0.696 ± 0.041 |
| SLVIVLPALIFL | 0.463 ± 0.026 | 0.545 ± 0.013 | 0.393 ± 0.013 | 0.569 ± 0.014 | 0.408 ± 0.0052 | 0.401 ± 0.024 | 0.522 ± 0.014 | 0.467 ± 0.035 |
| RFCLLFVVAGGV | 0.516 ± 0.0057 | 0.527 ± 0.024 | 0.343 ± 0.019 | 0.546 ± 0.0069 | 0.35 ± 0.035 | 0.371 ± 0.018 | 0.516 ± 0.015 | 0.457 ± 0.017 |
| VHHAFLPYTLVR | 0.502 ± 0.021 | 0.57 ± 0.011 | 0.375 ± 0.028 | 0.591 ± 0.017 | 0.361 ± 0.011 | 0.407 ± 0.019 | 0.5709 ± 0.0043 | 0.485 ± 0.01 |
| ACALRSLPPRPY | 0.69 ± 0.035 | 0.7529 ± 0.0042 | 0.65 ± 0.024 | 0.746 ± 0.024 | 0.68 ± 0.019 | 0.649 ± 0.021 | 0.712 ± 0.017 | 0.188 ± 0.064 |
| ESCWVSRVGVCR | 0.685 ± 0.03 | 0.731 ± 0.038 | 0.649 ± 0.062 | 0.7347 ± 0.0049 | 0.588 ± 0.0086 | 0.608 ± 0.01 | 0.687 ± 0.018 | 0.694 ± 0.076 |
